{
  "source": "paper PMC10783490",
  "about": "“Biochemical and cellular insights into the Baz2B protein, a non-catalytic subunit of the chromatin remodeling complex” (Nucleic Acids Research, 2023)",
  "assay_in_all_cases": "MST; 100 nM fluorescently labelled (RED-NHS) BRD^Baz2B, peptide (H3 or H3K14ac) titrated; MST buffer 150 mM Tris-HCl, 50 mM NaCl, 10 mM MgCl2, pH 7.6, 0.0025% Pluronic, 200 ng/ul BSA; 25 C, 20% MST power; at least triplicate",
  "details_in_all_cases": "both partners purified",
  "key": {"[1]": {"biological_target": "T1, His6-BRD^Baz2B (bromodomain of human Baz2B, wild-type) (human, UniProt Q9UIF8 2054-2168, fluorescent label (Monolith NT Protein Labelling Kit RED-NHS))", "T1 construct": "bromodomain (BRD) of human Baz2B, from plasmid pNIC28-Bsa4-BAZ2B-BRD; also called BAZ2B-BRD; source: E. coli BL21(DE3)-R3-pRARE2, purified (Ni-NTA, Sephadex 75)", "T1 sequence": "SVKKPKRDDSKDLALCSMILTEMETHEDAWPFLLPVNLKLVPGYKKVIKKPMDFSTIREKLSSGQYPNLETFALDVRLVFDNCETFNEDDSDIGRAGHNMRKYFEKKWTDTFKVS"}, "[2]": {"biological_target": "T2, BRD^Baz2B D2143N (human, UniProt Q9UIF8 2054-2168, D2143N, fluorescent label (Monolith NT Protein Labelling Kit RED-NHS))", "T2 construct": "bromodomain (BRD) of human Baz2B with a cancer-associated point mutation, made on pNIC28-Bsa4-BAZ2B-BRD; Same limits as m1; mutation found in breast invasive carcinoma; source: E. coli BL21(DE3)-R3-pRARE2, purified (Ni-NTA, Sephadex 75)", "T2 sequence": "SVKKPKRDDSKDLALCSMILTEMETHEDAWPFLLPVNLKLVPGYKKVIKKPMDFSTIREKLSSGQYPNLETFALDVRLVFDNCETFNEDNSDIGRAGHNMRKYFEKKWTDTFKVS"}, "[3]": {"biological_target": "T3, BRD^Baz2B L2073V (human, UniProt Q9UIF8 2054-2168, L2073V, fluorescent label (Monolith NT Protein Labelling Kit RED-NHS))", "T3 construct": "bromodomain (BRD) of human Baz2B with a cancer-associated point mutation, made on pNIC28-Bsa4-BAZ2B-BRD; Same limits as m1; mutation found in pancreatic cancer (COSMIC/ICGC); source: E. coli BL21(DE3)-R3-pRARE2, purified (Ni-NTA, Sephadex 75)", "T3 sequence": "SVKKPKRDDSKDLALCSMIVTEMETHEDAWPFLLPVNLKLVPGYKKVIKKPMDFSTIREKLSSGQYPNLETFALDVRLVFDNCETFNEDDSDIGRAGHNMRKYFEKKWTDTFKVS"}, "[4]": {"biological_target": "T1, His6-BRD^Baz2B (bromodomain of human …)", "remark": "listed apart in the source"}, "[5]": {"biological_target": "T4, BRD^Baz2B F2139C (human, UniProt Q9UIF8 2054-2168, F2139C, fluorescent label (Monolith NT Protein Labelling Kit RED-NHS))", "T4 construct": "bromodomain (BRD) of human Baz2B with a cancer-associated point mutation, made on pNIC28-Bsa4-BAZ2B-BRD; Same limits as m1; mutation found in endometrial cancer; source: E. coli BL21(DE3)-R3-pRARE2, purified (Ni-NTA, Sephadex 75)", "T4 sequence": "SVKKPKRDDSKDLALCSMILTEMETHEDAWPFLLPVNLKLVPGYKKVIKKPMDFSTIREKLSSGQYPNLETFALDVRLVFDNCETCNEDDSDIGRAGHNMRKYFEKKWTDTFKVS"}, "[6]": {"biological_target": "T5, BRD^Baz2B T2138I (human, UniProt Q9UIF8 2054-2168, T2138I, fluorescent label (Monolith NT Protein Labelling Kit RED-NHS))", "T5 construct": "bromodomain (BRD) of human Baz2B with a cancer-associated point mutation, made on pNIC28-Bsa4-BAZ2B-BRD; Same limits as m1; mutation found in multiple myeloma; source: E. coli BL21(DE3)-R3-pRARE2, purified (Ni-NTA, Sephadex 75)", "T5 sequence": "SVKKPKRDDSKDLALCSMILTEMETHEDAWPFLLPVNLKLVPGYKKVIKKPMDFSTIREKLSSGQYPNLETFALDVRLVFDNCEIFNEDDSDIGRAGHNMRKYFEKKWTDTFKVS"}, "[7]": {"biological_target": "T6, BRD^Baz2B K2098N (human, UniProt Q9UIF8 2054-2168, K2098N, fluorescent label (Monolith NT Protein Labelling Kit RED-NHS))", "T6 construct": "bromodomain (BRD) of human Baz2B with a cancer-associated point mutation, made on pNIC28-Bsa4-BAZ2B-BRD; Same limits as m1; mutation found in multiple myeloma; source: E. coli BL21(DE3)-R3-pRARE2, purified (Ni-NTA, Sephadex 75)", "T6 sequence": "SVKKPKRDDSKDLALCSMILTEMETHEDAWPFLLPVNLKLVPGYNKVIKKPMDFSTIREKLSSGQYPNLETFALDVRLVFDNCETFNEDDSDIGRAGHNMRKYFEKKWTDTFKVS"}, "[8]": {"biological_target": "T7, BRD^Baz2B L2127V (human, UniProt Q9UIF8 2054-2168, L2127V, fluorescent label (Monolith NT Protein Labelling Kit RED-NHS))", "T7 construct": "bromodomain (BRD) of human Baz2B with a cancer-associated point mutation, made on pNIC28-Bsa4-BAZ2B-BRD; Same limits as m1; mutation found in breast cancer; source: E. coli BL21(DE3)-R3-pRARE2, purified (Ni-NTA, Sephadex 75)", "T7 sequence": "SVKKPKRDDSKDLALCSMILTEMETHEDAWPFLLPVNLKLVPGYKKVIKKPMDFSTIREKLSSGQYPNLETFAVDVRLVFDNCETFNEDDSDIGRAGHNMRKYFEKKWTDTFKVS"}},
  "data": [
    {"binder": "Ac-TARKSTGGKAPRKQL-NH2 (N-terminal tail of histone H3, residues 6-20; also called unmodified H3 peptide; unmodified H3K14 tail peptide; source: synthetic peptide, bought: alta Bioscience)", "note": "[H3 peptide (Ac-TARKSTGGKAPRKQL-NH2)]", "values": [
      {"measurement": "Kd", "setting": "[1]", "result": 288, "unit": "µM"},
      {"measurement": "Kd", "setting": "[2]", "result": 42, "unit": "µM"},
      {"measurement": "Kd", "setting": "[3]", "result": 7, "unit": "µM"},
      {"measurement": "Kd", "setting": "[4]", "result": "> 288", "unit": "µM"},
      {"measurement": "Kd", "setting": "[5]", "result": "> 798", "unit": "µM"},
      {"measurement": "Kd", "setting": "[6]", "result": 211, "unit": "µM"},
      {"measurement": "Kd", "setting": "[7]", "result": 8, "unit": "µM"},
      {"measurement": "Kd", "setting": "[8]", "result": 1.7, "unit": "µM"}
    ]}
  ]
}
